PMC7423924, “A fluorogenic cyclic peptide for imaging and quantification of drug-induced apoptosis” (Nature Communications, 2020)
“And” between values parts separate entries of the source, which are not always exact repeats. Equal values may be shown once.

System: primary airway epithelial cells
Experiment: Flow cytometry staining before and after induction of apoptosis, epithelial
Assay type: cell-based, human
Settings: single replicates, listed as Ann V
Method: Fig. 2 Apo-15 binds to apoptotic cells of different origin in multiple environments. a Representative fluorescence confocal microscopy images (from three independent experiments) human apoptotic (yellow arrows) and viable (white arrows) cells from different lineages: BL-2 (lymphoid), neutrophils (myeloid), and primary airway epithelial cells (epithelial). Cells were incubated with Apo-15 (100 nM, green), AF647-Annexin V (5 nM, red), and Hoechst 33342 (7 μM, blue) for 10 min and imaged under a fluorescence confocal microscope (λexc.: 405, 488, 633 nm: λem.: 450, 525, 670 nm). Scale bars: 10 µm. b Divalent cation-independent binding of Apo-15 to apoptotic cells of different origin (top plots: lymphoid cells, bottom plots: myeloid cells). Mixtures of apoptotic (highlighted in green dots) and viable cells (highlighted in black dots) were stained with AF647-Annexin V (25 nM) and Apo-15 (100 nM) in the presence of 2 mM CaCl2 (left) or 2.5 mM EDTA (right). Representative histograms showing Apo-15 binding (x-axis) vs AF647-Annexin V binding (y-axis) acquired on 5L LSR flow cytometer (n = 5). c Cells were sorted on their Apo-15 positivity (green populations in panel b) or negativity (black populations in panel b). Gating strategy in Supplementary Fig. 7. Morphological analysis (four independent images from two independent experiments) of cytocentrifuge preparations of Apo-15-positive and Apo-15-negative cells under brightfield microscopy (scale bar: 10 µm). d Quantification of fluorescence staining of neutrophils (myeloid, n ≥ 5), BL-2 cells (lymphoid, n ≥ 3) and primary airway epithelial cells (epithelial, n = 5) before and after induction of apoptosis and upon treatment with Apo-15 and AF647-Annexin V. Data acquired on 5 L LSR flow cytometer and presented as mean values ± SEM. P values obtained from two-tailed t tests. Source data (in d) are provided as a Source data file. […]
All apopeptides were reconstituted at 5 mM in DMSO. […] Fluorescence emission was measured on a 5 L LSR flow cytometer (BD). […]

B1: Annexin V: fluorescently-labeled (AF647) annexin V, PS-binding protein (protein, UniProt P08758 2-320, looked up)
Annexin A5: AQVLRGTVTDFPGFDERADAETLRKAMKGLGTDEESILTLLTSRSNAQRQEISAAFKTLFGRDLLDDLKSELTGKFEKLIVALMKPSRLYDAYELKHALKGAGTNEKVLTEIIASRTPEELRAIKQVYEEEYGSSLEDDVVGDTSGYYQRMLVVLLQANRDPDAGIDEAQVEQDAQALFQAGELKWGTDEEKFITIFGTRSVSHLRKVFDKYMTISGFQIEETIDRETSGNLEQLLLAVVKSIRSIPAYLAETLYYAMKGAGTDDHTLIRVMVSRSEIDLFNIRKEFRKNFATSLYSMIKGDTSGDYKKALLLLCGEDD
modifications: AF647 label
Stained cells (flow cytometry) (epithelial cells untreated (UNT)): 7.0% and 6.2% and 7.1% and 5.9% and 13.0%
Stained cells (flow cytometry) (epithelial cells, staurosporine (ST, 1 µM 6 h)): 14.1% and 17.9% and 25.5% and 29.1% and 22.0%
Stained cells (flow cytometry) (epithelial cells, staurosporine, EDTA): 0.024% and 0.1% and 0.37% and 3.0% and 2.0%
